# Test results taken from IntAct's records for PubMed 29892012.
# B1: Cyclic AMP-dependent transcription factor ATF-4 (Homo sapiens), P18848 (parent)
# chain: MTEMSFLSSEVLVGDLMSPFDQSGLGAEESLGLLDDYLEVAKHFKPHGFSSDKAKAGSSEWLAVDGLVSPSNNSKEDAFSGTDWMLEKMDLKEFDLDALLGIDDLETMPDDLLTTLDDTCDLFAPLVQETNKQPPQTVNPIGHLPESLTKPDQVAPFTFLQPLPLSPGVLSSTPDHSFSLELGSEVDITEGDRKPDYTAYVAMIPQCIKEEDTPSDNDSGICMSPESYLGSPQHSPSTRGSPNRSLPSPGVLCGSARPKPYDPPGEKMVAAKVKGEKLDKKLKKMEQNKTAATRYRQKKRAEQEALTGECKELEKKNEALKERADSLAKEIQYLKDLIEEVRKARGKKRVP
# B2: Protein VAC14 homolog (Homo sapiens), Q08AM6 (parent)
# chain: MNPEKDFAPLTPNIVRALNDKLYEKRKVAALEIEKLVREFVAQNNTVQIKHVIQTLSQEFALSQHPHSRKGGLIGLAACSIALGKDSGLYLKELIEPVLTCFNDADSRLRYYACEALYNIVKVARGAVLPHFNVLFDGLSKLAADPDPNVKSGSELLDRLLKDIVTESNKFDLVSFIPLLRERIYSNNQYARQFIISWILVLESVPDINLLDYLPEILDGLFQILGDNGKEIRKMCEVVLGEFLKEIKKNPSSVKFAEMANILVIHCQTTDDLIQLTAMCWMREFIQLAGRVMLPYSSGILTAVLPCLAYDDRKKSIKEVANVCNQSLMKLVTPEDDELDELRPGQRQAEPTPDDALPKQEGTASGGPDGSCDSSFSSGISVFTAASTERAPVTLHLDGIVQVLNCHLSDTAIGMMTRIAVLKWLYHLYIKTPRKMFRHTDSLFPILLQTLSDESDEVILKDLEVLAEIASSPAGQTDDPGPLDGPDLQASHSELQVPTPGRAGLLNTSGTKGLECSPSTPTMNSYFYKFMINLLKRFSSERKLLEVRGPFIIRQLCLLLNAENIFHSMADILLREEDLKFASTMVHALNTILLTSTELFQLRNQLKDLKTLESQNLFCCLYRSWCHNPVTTVSLCFLTQNYRHAYDLIQKFGDLEVTVDFLAEVDKLVQLIECPIFTYLRLQLLDVKNNPYLIKALYGLLMLLPQSSAFQLLSHRLQCVPNPELLQTEDSLKAAPKSQKADSPSIDYAELLQHFEKVQNKHLEVRHQRSGRGDHLDRRVVL
# partner: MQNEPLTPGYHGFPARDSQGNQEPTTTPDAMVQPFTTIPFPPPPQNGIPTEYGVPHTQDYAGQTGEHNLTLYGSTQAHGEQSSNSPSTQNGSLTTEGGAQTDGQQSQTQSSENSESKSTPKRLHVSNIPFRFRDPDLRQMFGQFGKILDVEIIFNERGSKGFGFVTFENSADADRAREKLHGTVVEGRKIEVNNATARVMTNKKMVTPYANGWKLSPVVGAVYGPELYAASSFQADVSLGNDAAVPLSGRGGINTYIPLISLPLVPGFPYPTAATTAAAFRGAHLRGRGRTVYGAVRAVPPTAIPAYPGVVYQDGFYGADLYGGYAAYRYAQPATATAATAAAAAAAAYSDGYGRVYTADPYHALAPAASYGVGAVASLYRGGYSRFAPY
# B3: Keratin, type I cuticular Ha8 (Homo sapiens), O76015 (parent)
# chain: MTSSYSSSSCPLGCTMAPGARNVSVSPIDIGCQPGAEANIAPMCLLANVAHANRVRVGSTPLGRPSLCLPPTCHTACPLPGTCHIPGNIGICGAYGENTLNGHEKETMQFLNDRLANYLEKVRQLEQENAELEATLLERSKCHESTVCPDYQSYFHTIEELQQKILCSKAENARLIVQIDNAKLAADDFRIKLESERSLRQLVEADKCGTQKLLDDATLAKADLEAQQESLKEEQLSLKSNHEQEVKILRSQLGEKLRIELDIEPTIDLNRVLGEMRAQYEAMLETNRQDVEQWFQAQSEGISLQDMSCSEELQCCQSEILELRCTVNALEVERQAQHTLKDCLQNSLCEAEDRFGTELAQMQSLISNVEEQLSEIRADLERQNQEYQVLLDVKTRLENEIATYRNLLESEDCKLPCNPCSTSPSCVTAPCAPRPSCGPCTTCGPTCGASTTGSRF
# partner: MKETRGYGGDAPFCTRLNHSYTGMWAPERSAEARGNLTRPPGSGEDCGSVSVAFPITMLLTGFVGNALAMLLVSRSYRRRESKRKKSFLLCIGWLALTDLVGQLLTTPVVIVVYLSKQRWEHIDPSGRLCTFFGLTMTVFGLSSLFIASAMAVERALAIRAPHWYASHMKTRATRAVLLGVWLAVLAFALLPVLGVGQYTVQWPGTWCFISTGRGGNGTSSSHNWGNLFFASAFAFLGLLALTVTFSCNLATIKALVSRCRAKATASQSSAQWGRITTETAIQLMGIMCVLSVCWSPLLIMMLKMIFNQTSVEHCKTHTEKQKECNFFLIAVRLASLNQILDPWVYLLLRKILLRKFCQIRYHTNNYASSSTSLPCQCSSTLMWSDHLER
# B4: Keratin, type I cuticular Ha8 (Homo sapiens), O76015 (parent)
# chain: B3 chain
# partner: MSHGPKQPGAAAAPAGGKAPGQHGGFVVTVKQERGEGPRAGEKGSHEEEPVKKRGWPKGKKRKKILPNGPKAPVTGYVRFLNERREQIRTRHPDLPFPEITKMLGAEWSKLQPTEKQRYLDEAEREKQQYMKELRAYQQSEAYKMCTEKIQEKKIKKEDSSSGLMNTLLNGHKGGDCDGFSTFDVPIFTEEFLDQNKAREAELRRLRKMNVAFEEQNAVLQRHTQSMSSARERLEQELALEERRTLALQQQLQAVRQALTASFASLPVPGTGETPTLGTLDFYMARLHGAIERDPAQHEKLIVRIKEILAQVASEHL
# Variants of: B1
# Conditions: with cc106_human CCDC106, Q9BWC9
# Sequence of cc106_human CCDC106, Q9BWC9 (Q9BWC9 whole entry): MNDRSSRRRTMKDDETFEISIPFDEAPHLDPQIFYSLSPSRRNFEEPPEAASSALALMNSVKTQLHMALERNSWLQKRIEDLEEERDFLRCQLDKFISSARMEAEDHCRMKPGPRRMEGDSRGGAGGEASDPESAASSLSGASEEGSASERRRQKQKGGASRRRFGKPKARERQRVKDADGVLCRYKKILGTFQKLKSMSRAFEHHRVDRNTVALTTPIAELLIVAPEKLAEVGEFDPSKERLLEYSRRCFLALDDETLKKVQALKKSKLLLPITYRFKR
row,effect of a mutation on the interaction,Variant
1,with no effect,L180F

# Variants of: B1
# Conditions: with ldoc1_human LDOC1, O95751
# Sequence of ldoc1_human LDOC1, O95751 (O95751 whole entry): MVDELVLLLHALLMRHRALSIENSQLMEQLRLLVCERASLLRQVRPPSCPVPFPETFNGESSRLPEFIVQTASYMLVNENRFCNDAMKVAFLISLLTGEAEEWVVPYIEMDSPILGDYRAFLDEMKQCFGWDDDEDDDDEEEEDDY
row,effect of a mutation on the interaction,Variant
1,with no effect,L180F

# Variants of: B1
# Conditions: with gps2_human GPS2, Q13227
# Sequence of gps2_human GPS2, Q13227 (Q13227 whole entry): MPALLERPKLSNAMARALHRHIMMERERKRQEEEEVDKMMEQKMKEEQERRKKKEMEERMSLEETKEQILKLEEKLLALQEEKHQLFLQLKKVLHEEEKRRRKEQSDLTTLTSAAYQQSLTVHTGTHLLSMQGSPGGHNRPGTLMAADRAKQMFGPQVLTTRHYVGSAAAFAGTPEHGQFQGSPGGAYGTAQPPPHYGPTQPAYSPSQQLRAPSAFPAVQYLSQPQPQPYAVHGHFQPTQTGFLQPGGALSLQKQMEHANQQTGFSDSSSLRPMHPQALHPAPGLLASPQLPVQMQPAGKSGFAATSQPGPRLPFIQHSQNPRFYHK
row,effect of a mutation on the interaction,Variant
1,with no effect,L180F

# Variants of: B1
# Conditions: with tthy_human TTR
row,effect of a mutation on the interaction,Variant
1,with no effect,L180F

# Variants of: B1
# Conditions: with fbw1a_human BTRC
row,effect of a mutation on the interaction,Variant
1,with no effect,L180F

# Variants of: B2
# Conditions: with rfox2_human RBFOX2, O43251
row,effect of a mutation on the interaction,Variant
1,with no effect,A127S

# Variants of: B3
# Conditions: with pe2r3_human PTGER3, P43115
row,effect of a mutation on the interaction,Variant
1,with no effect,D306A

# Variants of: B3
# Conditions: with pe2r3_human PTGER3, P43115
# Remark: another data set of the same source
row,effect of a mutation on the interaction,Variant
1,with no effect,N270K

# Variants of: B4
# Conditions: with hm20b_human HMG20B
row,effect of a mutation on the interaction,Variant
1,with no effect,N270K
